Results as given in patent US20190233494A1 (Sanofi, published 2019).
Starred links: 1 amine or outer side, 2 acyl side, 3 side chain; linkers in the order of their positions; H or OH if unused. Non-standard residues stand in square brackets, D forms with d. Groups on a side chain read outwards from the residue. *: point of attachment. TTDS = 4-[3-[2-[2-(3-aminopropoxy)ethoxy]ethoxy]propylamino]-4-oxo-butanoyl; γGlu = O=C(O)[C@H](CCC(=O)[*:2])N[*:1]; Stearoyl = CCCCCCCCCCCCCCCCCC(=O)*; Palmitoyl = CCCCCCCCCCCCCCCC(=O)*; αMeK = C[C@](N)(CCCCN)C(=O)O; hLys = NCCCCC[C@H](N)C(=O)O; AEEA = NCCOCCOCC(=O)O; Aib = CC(C)(N)C(=O)O

T1: RXFP1 receptor (endogenous, on OVCAR5 cells) (UniProt Q9HBX9 1-757, limits assumed)
T1 sequence (looked up): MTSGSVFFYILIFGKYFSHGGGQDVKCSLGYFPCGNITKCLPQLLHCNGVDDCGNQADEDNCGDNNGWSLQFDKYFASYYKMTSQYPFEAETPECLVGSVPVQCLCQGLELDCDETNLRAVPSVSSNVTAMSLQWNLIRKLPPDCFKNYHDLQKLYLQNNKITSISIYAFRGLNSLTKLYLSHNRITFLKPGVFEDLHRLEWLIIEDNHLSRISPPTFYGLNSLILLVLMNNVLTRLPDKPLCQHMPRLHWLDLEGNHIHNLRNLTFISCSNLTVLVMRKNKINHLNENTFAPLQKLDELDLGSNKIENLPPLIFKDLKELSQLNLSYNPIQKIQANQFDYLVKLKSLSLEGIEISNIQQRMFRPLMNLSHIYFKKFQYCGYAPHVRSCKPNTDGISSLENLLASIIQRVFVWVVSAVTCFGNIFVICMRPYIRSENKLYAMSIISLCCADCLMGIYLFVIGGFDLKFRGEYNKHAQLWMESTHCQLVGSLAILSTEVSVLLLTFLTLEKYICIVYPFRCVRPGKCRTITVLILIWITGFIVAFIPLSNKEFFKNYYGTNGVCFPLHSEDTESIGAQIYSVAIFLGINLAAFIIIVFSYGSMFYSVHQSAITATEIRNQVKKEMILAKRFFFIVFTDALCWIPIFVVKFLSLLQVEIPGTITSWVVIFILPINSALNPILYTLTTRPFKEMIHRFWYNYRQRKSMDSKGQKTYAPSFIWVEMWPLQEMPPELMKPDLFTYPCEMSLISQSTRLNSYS

B1: peptide of SEQ ID NO: 22 (peptide)
peptide: LEGREKVRAXIXXEGXSTFSXRAX
modifications: Ac-L-E-G-R-E-K-V-R-A-K(Ac)-I-Aib-Aib-E-G-K(PEG2DGA-PEG2DGA-PEG2DGA-gE-gE-gE-Palm)-S-T-F-S-Mly-R-A-K(Ac)-NH2
B2: peptide of SEQ ID NO: 19 (peptide)
peptide: Ac-LEGREKVRAK(Ac)I[Aib][Aib]EGK([AEEA-AEEA-AEEA-γGlu-γGlu-γGlu-Palmitoyl])STWS[Aib]RKK(Ac)-NH2
SMILES: CCCCCCCCCCCCCCCC(=O)N[C@@H](CCC(=O)N[C@@H](CCC(=O)N[C@@H](CCC(=O)NCCOCCOCC(=O)NCCOCCOCC(=O)NCCOCCOCC(=O)NCCCC[C@H](NC(=O)CNC(=O)[C@H](CCC(=O)O)NC(=O)C(C)(C)NC(=O)C(C)(C)NC(=O)[C@@H](NC(=O)[C@H](CCCCNC(C)=O)NC(=O)[C@H](C)NC(=O)[C@H](CCCNC(=N)N)NC(=O)[C@@H](NC(=O)[C@H](CCCCN)NC(=O)[C@H](CCC(=O)O)NC(=O)[C@H](CCCNC(=N)N)NC(=O)CNC(=O)[C@H](CCC(=O)O)NC(=O)[C@H](CC(C)C)NC(C)=O)C(C)C)[C@@H](C)CC)C(=O)N[C@@H](CO)C(=O)N[C@H](C(=O)N[C@@H](Cc1c[nH]c2ccccc12)C(=O)N[C@@H](CO)C(=O)NC(C)(C)C(=O)N[C@@H](CCCNC(=N)N)C(=O)N[C@@H](CCCCN)C(=O)N[C@@H](CCCCNC(C)=O)C(N)=O)[C@@H](C)O)C(=O)O)C(=O)O)C(=O)O
B3: peptide of SEQ ID NO: 32 (peptide)
peptide: LEGREKVRAXIXXEGXSTFSXRAX
modifications: Ac-L-E-G-R-E-K-V-R-A-K(Ac)-I-Aib-Aib-E-G-K(PEG2DGA-PEG2DGA-PEG2DGA-gE-gE-gE-Stea)-S-T-F-S-Mly-R-A-K(Ac)-NH2
B4: peptide of SEQ ID NO: 21 (peptide)
peptide: Ac-LEGREKVRAK(Ac)I[Aib][Aib]EGK([AEEA-AEEA-AEEA-AEEA-γGlu-γGlu-γGlu-Stearoyl])STWS[Aib]RKK(Ac)-NH2
SMILES: CCCCCCCCCCCCCCCCCC(=O)N[C@@H](CCC(=O)N[C@@H](CCC(=O)N[C@@H](CCC(=O)NCCOCCOCC(=O)NCCOCCOCC(=O)NCCOCCOCC(=O)NCCOCCOCC(=O)NCCCC[C@H](NC(=O)CNC(=O)[C@H](CCC(=O)O)NC(=O)C(C)(C)NC(=O)C(C)(C)NC(=O)[C@@H](NC(=O)[C@H](CCCCNC(C)=O)NC(=O)[C@H](C)NC(=O)[C@H](CCCNC(=N)N)NC(=O)[C@@H](NC(=O)[C@H](CCCCN)NC(=O)[C@H](CCC(=O)O)NC(=O)[C@H](CCCNC(=N)N)NC(=O)CNC(=O)[C@H](CCC(=O)O)NC(=O)[C@H](CC(C)C)NC(C)=O)C(C)C)[C@@H](C)CC)C(=O)N[C@@H](CO)C(=O)N[C@H](C(=O)N[C@@H](Cc1c[nH]c2ccccc12)C(=O)N[C@@H](CO)C(=O)NC(C)(C)C(=O)N[C@@H](CCCNC(=N)N)C(=O)N[C@@H](CCCCN)C(=O)N[C@@H](CCCCNC(C)=O)C(N)=O)[C@@H](C)O)C(=O)O)C(=O)O)C(=O)O
B5: peptide of SEQ ID NO: 26 (peptide)
peptide: Ac-LEGREKVRAK(Ac)I[Aib][Aib]EGK([AEEA-AEEA-AEEA-AEEA-γGlu-γGlu-γGlu-Stearoyl])STFS[αMeK]RAK(Ac)-NH2
SMILES: CCCCCCCCCCCCCCCCCC(=O)N[C@@H](CCC(=O)N[C@@H](CCC(=O)N[C@@H](CCC(=O)NCCOCCOCC(=O)NCCOCCOCC(=O)NCCOCCOCC(=O)NCCOCCOCC(=O)NCCCC[C@H](NC(=O)CNC(=O)[C@H](CCC(=O)O)NC(=O)C(C)(C)NC(=O)C(C)(C)NC(=O)[C@@H](NC(=O)[C@H](CCCCNC(C)=O)NC(=O)[C@H](C)NC(=O)[C@H](CCCNC(=N)N)NC(=O)[C@@H](NC(=O)[C@H](CCCCN)NC(=O)[C@H](CCC(=O)O)NC(=O)[C@H](CCCNC(=N)N)NC(=O)CNC(=O)[C@H](CCC(=O)O)NC(=O)[C@H](CC(C)C)NC(C)=O)C(C)C)[C@@H](C)CC)C(=O)N[C@@H](CO)C(=O)N[C@H](C(=O)N[C@@H](Cc1ccccc1)C(=O)N[C@@H](CO)C(=O)N[C@@](C)(CCCCN)C(=O)N[C@@H](CCCNC(=N)N)C(=O)N[C@@H](C)C(=O)N[C@@H](CCCCNC(C)=O)C(N)=O)[C@@H](C)O)C(=O)O)C(=O)O)C(=O)O

What follows are binders tested against T1, RXFP1 receptor (endogenous, on OVCAR5 …) (assay: cell-based or functional assay).

EC50 (nM), OVCAR 5 cells (cAMP) | EMax, OVCAR 5 cells (cAMP) | Binder
1 nM | 92% | B1
4.6 nM | 91% | Ac-LEGREKVRAK(Ac)I[Aib][Aib]EGK([TTDS-TTDS-γGlu-γGlu-γGlu-Palmitoyl])STWS[dK]RAK(Ac)-NH2 [peptide of SEQ ID NO: 17]
11.5 nM | 94% | B2
2.4 nM | 99% | Ac-LEGREKVRAK(Ac)I[Aib][Aib]EGK([TTDS-TTDS-TTDS-γGlu-γGlu-γGlu-Palmitoyl])STFS[Aib]RAK(Ac)-NH2 [peptide of SEQ ID NO: 2]
28.7 nM | 100% | Ac-LEGREQVRAK(Ac)I[Aib][Aib]EGK([TTDS-TTDS-TTDS-γGlu-γGlu-γGlu-Palmitoyl])STFS[αMeK]RAK(Ac)-NH2 [peptide of SEQ ID NO: 25]
2.33 nM | 91% | Ac-LEGREKVRAK(Ac)I[Aib][Aib]EGK([TTDS-TTDS-TTDS-γGlu-γGlu-γGlu-Palmitoyl])STW[Aib]KRAK(Ac)-NH2 [peptide of SEQ ID NO: 35]
0.19 nM |  | Ac-LEGRERVRAK(Ac)I[Aib][Aib]EGK([TTDS-TTDS-TTDS-γGlu-γGlu-γGlu-Palmitoyl])STWS[Aib]RRK(Ac)-NH2 [peptide of SEQ ID NO: 31]
0.15 nM | 96% | Ac-LEGREKVRAK(Ac)I[Aib][Aib]EGK([TTDS-TTDS-TTDS-γGlu-γGlu-γGlu-Stearoyl])STWS[Aib]RKK(Ac)-NH2 [peptide of SEQ ID NO: 20]
6.8 nM | 88% | Ac-LEGREKVRAK(Ac)I[Aib][Aib]EGK([TTDS-TTDS-γGlu-γGlu-γGlu-Palmitoyl])STFS[dK]RAK(Ac)-NH2 [peptide of SEQ ID NO: 16]
1.54 nM | 92% | Ac-LEGREKVRAK(Ac)I[Aib][Aib]EGK([TTDS-TTDS-γGlu-γGlu-γGlu-Palmitoyl])STWS[dK]RKK(Ac)-NH2 [peptide of SEQ ID NO: 18]
0.14 nM | 90% | Ac-LEGREKVRAK(Ac)I[Aib][Aib]EGK([TTDS-TTDS-γGlu-γGlu-γGlu-Stearoyl])STFS[αMeK]RAK(Ac)-NH2 [peptide of SEQ ID NO: 34]
0.34 nM | 97% | Ac-LEGREKVRAK(Ac)I[Aib][Aib]EGK([TTDS-TTDS-TTDS-γGlu-γGlu-γGlu-Palmitoyl])STFS[αMeK]RAK(Ac)-NH2 [peptide of SEQ ID NO: 3]
11.1 nM | 92% | Ac-LEGRELVRAK(Ac)I[Aib][Aib]EGK([TTDS-TTDS-TTDS-γGlu-γGlu-γGlu-Palmitoyl])STFS[αMeK]RAK(Ac)-NH2 [peptide of SEQ ID NO: 23]
0.1 nM | 97% | B3
0.62 nM | 88% | Ac-LEGRE[hLys]VRAK(Ac)I[Aib][Aib]EGK([TTDS-TTDS-TTDS-γGlu-γGlu-γGlu-Palmitoyl])STFS[αMeK]RAK(Ac)-NH2 [peptide of SEQ ID NO: 28]
36.4 nM | 100% | Ac-LEGREFVRAK(Ac)I[Aib][Aib]EGK([TTDS-TTDS-TTDS-γGlu-γGlu-γGlu-Palmitoyl])STFS[αMeK]RAK(Ac)-NH2 [peptide of SEQ ID NO: 24]
1.8 nM | 98% | Ac-LEGRERVRAK(Ac)I[Aib][Aib]EGK([TTDS-TTDS-TTDS-γGlu-γGlu-γGlu-Palmitoyl])STFS[αMeK]RAK(Ac)-NH2 [peptide of SEQ ID NO: 27]
2.1 nM | 85% | Ac-LEGREKVRAK(Ac)I[Aib][Aib]EGK([TTDS-TTDS-TTDS-γGlu-γGlu-γGlu-Palmitoyl])STF[Aib]KRAK(Ac)-NH2 [peptide of SEQ ID NO: 15]
0.65 nM | 93% | B4
0.43 nM | 96% | B5
0.21 nM | 89% | Ac-LEGREKVRAK(Ac)I[Aib][Aib]EGK([TTDS-TTDS-TTDS-γGlu-γGlu-γGlu-Stearoyl])STWS[αMeK]RAK(Ac)-NH2 [peptide of SEQ ID NO: 30]
1.6 nM | 88% | Ac-LEGREKVR[Aib]K(Ac)I[Aib][Aib]EGK([TTDS-TTDS-TTDS-γGlu-γGlu-γGlu-Palmitoyl])STFS[αMeK]RAK(Ac)-NH2 [peptide of SEQ ID NO: 29]
